In the test the target is T1, recombinant human mitochondrial fission protein 1 (Fis1) (human), Q9Y3D6.
T1 chain: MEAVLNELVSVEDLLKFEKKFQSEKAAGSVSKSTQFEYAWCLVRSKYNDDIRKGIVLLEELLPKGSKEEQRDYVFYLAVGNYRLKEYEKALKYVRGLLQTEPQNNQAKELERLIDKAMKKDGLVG

Several values for one entry are separate records, joined by “and”; a condition that tells them apart may be missing. Equal values may be shown once.

B1: pep213 (peptide)
peptide: SHKHDPLPYPHFLL
modifications: not checked
For the molecule B1, the Kd is 7 µM and 3.3 µM.
